Like-named read-outs stand apart in the source and are kept apart here.
Experiments:
[1] = biological target: T1, 4H953-bN; assay: two-hybrid library CCNG1;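 further: natural log of median RNA to DNA barcode read ratio; higher means stronger binding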
T1 chain: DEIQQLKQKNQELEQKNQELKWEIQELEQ

[2] = biological target: T2, 4H967-bN; assay: two-hybrid library CCNG1;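 further: natural log of median RNA to DNA barcode read ratio; higher means stronger binding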
T2 chain: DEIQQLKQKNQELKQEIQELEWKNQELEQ

[3] = biological target: T3, 4H908-bN; assay: two-hybrid library CCNG1;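 further: natural log of median RNA to DNA barcode read ratio; higher means stronger binding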
T3 chain: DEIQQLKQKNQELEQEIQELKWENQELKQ

[4] = biological target: T4, 4H918-bN; assay: two-hybrid library CCNG1;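 further: natural log of median RNA to DNA barcode read ratio; higher means stronger binding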
T4 chain: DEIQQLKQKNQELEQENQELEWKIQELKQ

[5] = biological target: T5, 4H675-AA; assay: two-hybrid library CCmax
T5 chain: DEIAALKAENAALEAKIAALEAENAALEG

[6] = biological target: T6, 4H656-AA; assay: two-hybrid library CCmax; details: mean of both orientations
T6 chain: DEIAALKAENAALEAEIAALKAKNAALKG

[7] = biological target: T7, 4H428-AA; assay: two-hybrid library CCmax
T7 chain: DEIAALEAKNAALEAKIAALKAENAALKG

[8] = biological target: T8, 4H497-AA; assay: two-hybrid library CCmax
T8 chain: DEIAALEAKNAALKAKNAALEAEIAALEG

[9] = biological target: T9, 4H971-AA; assay: two-hybrid library CCmax; details: mean of both orientations
T9 chain: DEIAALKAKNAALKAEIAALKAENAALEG

[10] = biological target: T10, 4H478-AA; assay: two-hybrid library CCmax
T10 chain: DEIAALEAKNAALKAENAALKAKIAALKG

[11] = biological target: T11, 4H982-AA; assay: two-hybrid library CCmax
T11 chain: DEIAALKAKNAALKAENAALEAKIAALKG

[12] = biological target: T12, 4H697-AA; assay: two-hybrid library CCmax
T12 chain: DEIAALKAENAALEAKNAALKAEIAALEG

[13] = biological target: T13, 4H3410-AA; assay: two-hybrid library CCmax
T13 chain: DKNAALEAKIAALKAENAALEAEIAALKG

[14] = biological target: T14, 4H458-AA; assay: two-hybrid library CCmax; details: mean of both orientations
T14 chain: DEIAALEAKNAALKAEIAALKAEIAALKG

[15] = biological target: T15, 4H891-AA; assay: two-hybrid library CCmax; details: mean of both orientations
T15 chain: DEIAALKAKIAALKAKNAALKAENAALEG

[16] = biological target: T16, 4H850-AA; assay: two-hybrid library CCmax; details: mean of both orientations
T16 chain: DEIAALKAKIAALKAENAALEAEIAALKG

[17] = biological target: T17, 4H745-AA; assay: two-hybrid library CCmax; details: mean of both orientations
T17 chain: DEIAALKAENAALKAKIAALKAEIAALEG

[18] = biological target: T18, 4H570-AA; assay: two-hybrid library CCmax; details: mean of both orientations
T18 chain: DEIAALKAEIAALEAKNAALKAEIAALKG

[19] = biological target: T19, 4H629-AA; assay: two-hybrid library CCmax; details: mean of both orientations
T19 chain: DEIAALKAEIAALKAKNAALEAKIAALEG

[20] = biological target: T20, 4H3753-AA; assay: two-hybrid library CCmax; details: mean of both orientations
T20 chain: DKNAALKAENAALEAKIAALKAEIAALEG

[21] = biological target: T21, 4H930-AA; assay: two-hybrid library CCmax; details: mean of both orientations
T21 chain: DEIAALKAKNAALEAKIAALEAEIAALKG

[22] = biological target: T22, 4H909-AA; assay: two-hybrid library CCmax; details: mean of both orientations
T22 chain: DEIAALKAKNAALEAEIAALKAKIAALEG

[23] = biological target: T23, 4H710-AA; assay: two-hybrid library CCmax; details: mean of both orientations
T23 chain: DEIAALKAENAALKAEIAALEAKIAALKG

[24] = biological target: T24, 4H536-AA; assay: two-hybrid library CCmax; details: mean of both orientations
T24 chain: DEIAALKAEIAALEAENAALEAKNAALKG

[25] = biological target: T25, 4H797-AA; assay: two-hybrid library CCmax; details: mean of both orientations
T25 chain: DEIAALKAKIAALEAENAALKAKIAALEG

[26] = biological target: T26, 4H94-AA; assay: two-hybrid library CCmax; details: mean of both orientations
T26 chain: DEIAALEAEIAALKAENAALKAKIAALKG

[27] = biological target: T27, 4H3697-AA; assay: two-hybrid library CCmax
T27 chain: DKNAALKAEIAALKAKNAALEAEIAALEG

[28] = biological target: T28, 4H3590-AA; assay: two-hybrid library CCmax; details: mean of both orientations
T28 chain: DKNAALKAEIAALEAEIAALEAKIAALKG

[29] = biological target: T29, 4H485-AA; assay: two-hybrid library CCmax; details: mean of both orientations
T29 chain: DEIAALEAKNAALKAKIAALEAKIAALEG

[30] = biological target: T30, 4H3865-AA; assay: two-hybrid library CCmax; details: mean of both orientations
T30 chain: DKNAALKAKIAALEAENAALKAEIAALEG

[31] = biological target: T31, 4H3395-AA; assay: two-hybrid library CCmax
T31 chain: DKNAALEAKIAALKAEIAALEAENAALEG

[32] = biological target: T32, 4H3165-AA; assay: two-hybrid library CCmax
T32 chain: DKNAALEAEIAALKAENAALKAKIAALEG

[33] = biological target: T33, 4H3381-AA; assay: two-hybrid library CCmax; details: mean of both orientations
T33 chain: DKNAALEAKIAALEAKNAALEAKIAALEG

[34] = biological target: T34, 4H906-bA; assay: two-hybrid library CCNG1
T34 chain: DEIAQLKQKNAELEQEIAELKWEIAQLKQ

[35] = biological target: T35, 4H850-bA; assay: two-hybrid library CCNG1
T35 chain: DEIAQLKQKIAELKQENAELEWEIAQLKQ

[36] = biological target: T36, 4H883-bN; assay: two-hybrid library CCNG1
T36 chain: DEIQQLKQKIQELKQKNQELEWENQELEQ

[37] = biological target: T37, APC9806-AA; assay: two-hybrid library CCmax
T37 chain: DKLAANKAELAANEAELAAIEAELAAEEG

[38] = biological target: T38, 4H3718-AA; assay: two-hybrid library CCmax; details: mean of both orientations
T38 chain: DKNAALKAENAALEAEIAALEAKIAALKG

[39] = biological target: T39, 4H384-AA; assay: two-hybrid library CCmax; details: mean of both orientations
T39 chain: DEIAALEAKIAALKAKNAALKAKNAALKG

[40] = biological target: T40, 4H63-AA; assay: two-hybrid library CCmax; details: mean of both orientations
T40 chain: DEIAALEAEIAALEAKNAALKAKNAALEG

[41] = biological target: T41, 4H432-AA; assay: two-hybrid library CCmax
T41 chain: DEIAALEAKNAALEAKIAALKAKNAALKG

[42] = biological target: T42, 4H446-AA; assay: two-hybrid library CCmax; details: mean of both orientations
T42 chain: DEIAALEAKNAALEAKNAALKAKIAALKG

With DEIQQLKQKNQELEQEIQELKWENQELKQ [4H908-bN] the interaction score [1] was -0.77, the interaction score [2] was -0.23 and the interaction score [3] was -0.618. For the same binder, the interaction score [4] was -0.988.

With DEIAALEAKNAALEAKIAALKAENAALKG [4H428-AA] the interaction score ([5]; mean of both orientations) was 0.166, the interaction score [6] was -0.675 and the interaction score [7] was 0.174. The interaction score ([8]; mean of both orientations) was -1.47, the interaction score [9] was -0.222 and the interaction score ([10]; mean of both orientations) was -1.71.

DEIAALEAKNAALKAENAALKAKIAALKG [4H478-AA] gave an interaction score [5] of -1.76, an interaction score [6] of -0.144 and an interaction score ([8]; mean of both orientations) of -0.909. It also gave an interaction score [9] of -1.54 and an interaction score [10] of 0.99.

With DEIAALKAENAALEAKNAALKAEIAALEG [4H697-AA] the interaction score [11] was 2.27 and the interaction score [12] was -1.15.

DKNAALEAKIAALKAENAALEAEIAALKG [4H3410-AA] showed an interaction score [13] of 0.0832, an interaction score [14] of 1.79 and an interaction score [15] of -1.42. The interaction score [16] was -0.83, the interaction score [17] was -0.581 and the interaction score [18] was 2.09. The interaction score [19] was -1.53, the interaction score [20] was -1.39 and the interaction score [21] was -1.36. It also gave an interaction score [22] of -1.45, an interaction score [23] of -1.13 and an interaction score [24] of -1.39. For the same binder, the interaction score [25] was -1.22, the interaction score [26] was 1.3 and the interaction score ([27]; mean of both orientations) was -0.574. It also gave an interaction score [28] of -0.698, an interaction score [29] of -0.0439 and an interaction score [30] of 0.873.

With DKNAALEAEIAALKAENAALKAKIAALEG [4H3165-AA] the interaction score ([31]; mean of both orientations) was -1.37, the interaction score [32] was 1.88 and the interaction score ([13]; mean of both orientations) was -0.394. For the same binder, the interaction score [14] was -1.24, the interaction score [15] was -1.63 and the interaction score [16] was -0.685. It also gave an interaction score [17] of -0.851, an interaction score [18] of -1.57 and an interaction score [19] of -0.975. It also gave an interaction score [20] of -1.55, an interaction score [21] of -1.79 and an interaction score [22] of -1.43. For the same binder, the interaction score [23] was -1.07, the interaction score [24] was -1.27 and the interaction score [25] was -0.547. For the same binder, the interaction score [33] was -1.72, the interaction score [26] was 0.996 and the interaction score ([27]; mean of both orientations) was -0.699. For the same binder, the interaction score [28] was -0.944, the interaction score [29] was -1.05 and the interaction score [30] was -0.353.

DKNAALEAKIAALKAEIAALEAENAALEG [4H3395-AA] gave an interaction score [31] of 0.0829, an interaction score ([13]; mean of both orientations) of -1.06 and an interaction score [14] of -1.44. The interaction score [15] was 0.496, the interaction score [16] was -1.34 and the interaction score [17] was -1.46. For the same binder, the interaction score [18] was -0.846, the interaction score [19] was -1.64 and the interaction score [20] was -0.825. For the same binder, the interaction score [21] was -1.33, the interaction score [22] was -1.83 and the interaction score [23] was -1.32. It also gave an interaction score [24] of -1.14, an interaction score [25] of -1.43 and an interaction score [26] of -0.52. The interaction score ([27]; mean of both orientations) was -1.79, the interaction score [28] was 0.738 and the interaction score [29] was -1.67. The interaction score [30] was -1.79.

DEIAQLKQKIAELKQENAELEWEIAQLKQ [4H850-bA] gave an interaction score [34] of -1.27 and an interaction score [35] of 0.428.

For DEIQQLKQKIQELKQKNQELEWENQELEQ [4H883-bN], the interaction score [1] was -1.82, the interaction score [2] was -0.861 and the interaction score [3] was -1.19. For the same binder, the interaction score [4] was -0.986 and the interaction score [36] was -1.15.

In the case of DEIAALEAKNAALKAKNAALEAEIAALEG [4H497-AA], the interaction score [5] is reported as -0.54, the interaction score [6] is reported as -1.34 and the interaction score [8] is reported as -1.57. It also gave an interaction score [9] of -2.19.

DKLAANKAELAANEAELAAIEAELAAEEG [APC9806-AA] was tested, and the interaction score [37] was -2.12.

Work on DKNAALKAEIAALKAKNAALEAEIAALEG [4H3697-AA] yielded an interaction score [38] of -0.817, an interaction score ([11]; mean of both orientations) of -1.01 and an interaction score [14] of -1.36. The interaction score [15] was -1.55, the interaction score [16] was -0.0774 and the interaction score [17] was -1.64. For the same binder, the interaction score [39] was -0.953, the interaction score [18] was 0.23 and the interaction score [19] was -0.654. The interaction score [20] was -1.79, the interaction score [21] was -1.4 and the interaction score [22] was -1.21. For the same binder, the interaction score [23] was -1.75, the interaction score [24] was 0.0406 and the interaction score [25] was -1.44. The interaction score ([12]; mean of both orientations) was -1.53, the interaction score [26] was 1.01 and the interaction score [27] was -0.761. It also gave an interaction score [29] of -0.973 and an interaction score [30] of -1.52.

DEIAALEAKNAALEAKIAALKAKNAALKG [4H432-AA] gave an interaction score [40] of -1.92, an interaction score [41] of -1.51 and an interaction score [42] of -1.7.

Reference: article PMC10397247
